Data set [1] deals with T1, RecA (UniProt P0A7G6 2-353). The data set is described as follows: stopped-flow fluorescence; pH 5; 1 mM ATP, 10 mM Mg2+; binds in less than 1 s; EMSA: 50 mM phosphate/citrate pH 5-8, 50 mM NaCl, 10 mM MgCl2, 1 mM ATP, 25 C, 5 min, then 0.125% glutaraldehyde; stopped-flow: 20 nM dT79, 1 mM ATP, 10 mM MgCl2. Conditions: protein: commercial; label: 5'-Cy3; single strand.
The target of data set [2] is T1, RecA. The data set is described as follows: EMSA (glutaraldehyde-fixed); pH 5; 1 mM ATP, 10 mM Mg2+; EMSA: 50 mM phosphate/citrate pH 5-8, 50 mM NaCl, 10 mM MgCl2, 1 mM ATP, 25 C, 5 min, then 0.125% glutaraldehyde; stopped-flow: 20 nM dT79, 1 mM ATP, 10 mM MgCl2. Conditions: protein: commercial; label: 5'-FITC; single strand. For orientation: In EMSA bound probe runs differently from free probe, usually more slowly.

The results in this text go back to PMC7655802, “Antibiotic-induced DNA damage results in a controlled loss of pH homeostasis and genome instability”.

T1 sequence (P0A7G6 2-353): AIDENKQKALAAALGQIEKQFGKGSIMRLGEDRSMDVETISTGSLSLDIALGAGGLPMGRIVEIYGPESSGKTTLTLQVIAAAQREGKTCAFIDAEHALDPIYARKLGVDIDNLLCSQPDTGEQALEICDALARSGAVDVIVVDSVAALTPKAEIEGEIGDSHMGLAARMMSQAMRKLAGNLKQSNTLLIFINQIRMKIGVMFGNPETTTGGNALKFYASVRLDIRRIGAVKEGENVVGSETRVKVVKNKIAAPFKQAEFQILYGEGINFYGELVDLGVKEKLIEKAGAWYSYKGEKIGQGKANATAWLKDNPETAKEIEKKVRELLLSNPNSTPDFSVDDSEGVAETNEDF

B1: dT79 (ssDNA)
DNA: TTTTTTTTTTTTTTTTTTTTTTTTTTTTTTTTTTTTTTTTTTTTTTTTTTTTTTTTTTTTTTTTTTTTTTTTTTTTTTT
For B1, in the data set with RecA [1], the binding result is “binds”.

B2: 90mer oligonucleotide (ssDNA)
DNA: AAATCAATCTAAAGTATATATGAGTAAACTTGGTCTGACAGTTACCAATGCTTAATCAGTGAGGCACCTATCTCAGCGATCTGTCTATTT
For the molecule B2, the binding signal with RecA [2] was ~10 fold higher affinity at pH 5 than at pH 8.
